Experimental findings from patent publication US20070192884A1 are described below.

Test [1] addresses TAT-038 as carried by human tumor cell lines (H1299, PC-3, K562, HL-60) (human) (UniProt P15144). Briefly: flow cytometry, PC-3 human tumor cells.
Test [2] has the same target. Kind of test: flow cytometry, H1299 human tumor cells. (In general: Flow cytometry measures light scatter and fluorescence of single cells or particles in a stream.)
For test [3] the target is unchanged. Kind of test: flow cytometry, PC3 human tumor cells.
Test [4] shares this target. Briefly: flow cytometry, K562 human tumor cells.
Test [5] concerns the target TAT-038 (full-length, cloned from human placenta cDNA, expressed from phCMV1-TAT-038 in stable 293G and BaF3 cells) (human) (UniProt P15144). Briefly: flow cytometry, BaF3 cells stably expressing TAT-038 (BAF3 ANPEP).
Test [6] shares this target. Briefly: flow cytometry, 293G cells stably expressing TAT-038 (293G-ANPEP).
The target in test [7] is TAT-038 as carried by human tumor cell lines (H1299, PC-3, K562, HL-60) (human) (UniProt P15144). Kind of test: flow cytometry, HL-60 human tumor cells.

Where “and” joins values, the source holds several entries; their conditions need not be identical. Equal values may be shown once.

Turning to “Mouse monoclonal antibody WM15 (BD Pharmingen, cat#555393)”, the geometric mean fluorescence in test [1] was 47; in test [2] it was 4; in test [3], 125; in test [4], 7 and 9; in test [5], 59.3; in test [6], 221. The substance further showed a geometric mean fluorescence in test [7] of 23.
